Data as given in patent US20100144847A1.

Molecular target: tropomyosin
Assay: cell-based or functional assay

## GFP-CKIIα (from UniProt Q60737 1-391)
  colony formation inhibition assay, A9 cells under G418 selection: > 2000 colonies
